Reference: patent US20180079804A1 (Hoffmann-La Roche, published 2018)
Non-standard residues stand in square brackets, D forms with d. No end group written: not given here. *: point of attachment. Biotin = O=C1N[C@H]2[C@H](CS[C@H]2CCCCC(=O)*)N1; pS = N[C@@H](COP(=O)(O)O)C(=O)O; code U = not defined here; code X = not defined here

T1: tau peptide residues 416 to 430 of SEQ ID NO: 01 (human, also: biotinylated, site not given here)
T1 construct: also called non-phosphorylated tau peptide
T1 peptide: SIDMVDSPQLATLAD

T2: biotinylated pTau fragment pTau(416-430)[Bi-XUUUU-416; pSer-422]amid (human, reading uncertain; also: printed as pTau(416-430)[Bi-XUUUU-416; pSer-422]amid)
T2 construct: also called Tau(pS422) fragment
T2 peptide: {Biotin-code X-code U-code U-code U-code U}-SIDMVD[pS]PQLATLAD-NH2

T3: Tau(pS422) fragment SEQ ID NO: 03 (human)
T3 construct: also called phosphorylated tau peptide
T3 peptide: SIDMVD[pS]PQLATLAD


Legend:
[1] = biological target: T4, full length human tau SEQ ID NO: 01 (human, UniProt P10636 1-758); experiment: ELISA
T4 construct: not phosphorylated; also called tau protein; non-phosphorylated full-length human tau
T4 sequence (P10636 other isoform, or with tags, fused parts or gaps limits assumed): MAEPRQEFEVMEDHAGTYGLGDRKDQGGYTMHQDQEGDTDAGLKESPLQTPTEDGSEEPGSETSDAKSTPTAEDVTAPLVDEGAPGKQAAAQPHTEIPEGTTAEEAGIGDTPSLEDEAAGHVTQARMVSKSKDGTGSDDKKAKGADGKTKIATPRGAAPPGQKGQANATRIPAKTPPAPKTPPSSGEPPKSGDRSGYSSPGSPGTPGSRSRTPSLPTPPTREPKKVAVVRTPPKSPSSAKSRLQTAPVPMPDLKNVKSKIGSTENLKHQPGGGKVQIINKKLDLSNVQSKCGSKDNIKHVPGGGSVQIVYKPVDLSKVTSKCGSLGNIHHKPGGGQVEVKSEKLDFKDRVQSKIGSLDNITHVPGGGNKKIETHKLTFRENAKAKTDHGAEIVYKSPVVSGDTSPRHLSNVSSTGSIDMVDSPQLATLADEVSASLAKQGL
Method: (§1) Non-biotinylated peptide/protein/aggregate was added to non-coated Maxisorb plates, biotinylated peptide/protein/aggregate in PBS was added to streptavidin-coated Maxisorb plates, and plates were incubated over-night. The supernatant was discarded and the wells washed three times with 90 μl wash buffer (1x PBS/0.1% Tween 20). Remaining reactive spots were blocked with blocking buffer (1x PBS/2% BSA (Bovine Serum Albumin Fraction V, fatty acid free, Roche, Cat. No.: 10735078001)/0.05% Tween 20) by incubating for 1 hour. The supernatant was discarded and the wells washed three times with 90 μl wash buffer. Samples and control antibody were prepared in 12 dilutions (1:2) in ELISA buffer (1×PBS/0.5% BSA (Bovine Serum Albumin Fraction V, fatty acid free, Roche, Cat. […] The incubation time was 60 minutes at room temperature on a shaker. The supernatant was discarded and the wells washed three times with 90 μl wash buffer. Solutions of secondary antibody were prepared in ELISA buffer. A total of 25 μl antibody-mix was transferred to all wells of the assay plate and the plate was thereafter incubated on shaker for 60 minutes at room temperature. The supernatant was discarded and the wells were washed three times with 90 μl wash buffer. 25 μl of ABTS solution was added to all wells. The absorbance was read at 405 nm-492 nm.

[2] = biological target: T1, tau peptide residues 416 to 430 of SEQ …; experiment: ELISA
Method: as §1

[3] = biological target: T4, full length human tau SEQ ID NO: 01; experiment: ELISA, non-phosphorylated full-length human tau coated at 1 ug/ml, antibody titrated
[4] = biological target: T2, biotinylated pTau fragment …; experiment: SPR direct assay (Example 11), Fab over immobilized biotinylated fragment, 25 C
Method: Binding of anti-pTau antibody Fab fragment samples to pTau fragment was investigated by surface plasmon resonance using a BIACORE T200 instrument (GE Healthcare). […] Running and dilution buffer for immobilization was HBS-N, pH 7.4 (10 mM HEPES, 150 mM NaCl, pH 7.4, GE Healthcare). For the following kinetic characterization, running and dilution buffer was PBS-T (10 mM phosphate buffered saline including 0.05% Tween 20), pH 7.4. The sample block was set to 12° C. The flow cell was set to 25° C. and primed with running buffer twice.
Association was measured by injection of the anti-pTau antibody Fab fragment samples at various concentrations in solution for 180 seconds at a flow of 30 μl/min starting with 100 nM in 1:3 dilutions. The dissociation phase was monitored for up to 600 seconds and triggered by switching from the sample solution to running buffer. The surface was regenerated by washing with one injection of 10 mM glycine solution, pH 1.7 for 60 seconds at a flow rate of 10 μl/minute. Bulk refractive index differences were corrected by subtracting the response obtained from a blank surface. Blank injections were also subtracted (=double referencing). For calculation of KD and other kinetic parameters the Langmuir 1:1 model was used.

[5] = biological target: T3, Tau(pS422) fragment SEQ ID NO: 03; experiment: ELISA
Method: as §1

[6] = biological target: T3, Tau(pS422) fragment SEQ ID NO: 03; experiment: SPR capture assay (Example 10), 25 C
Method: Binding of pTau fragment to anti-pTau antibodies was investigated by surface plasmon resonance using a BIACORE T200 instrument (GE Healthcare). Around 10,000 resonance units (RU) of the capturing system (10 μg/ml goat anti-human Fc antibody; Jackson Immuno Research; Order Code: JIR 109-005-098) were coupled on a CM5 chip (GE Healthcare BR-1005-30) at pH 5.0 by using an amine coupling kit supplied by the GE Healthcare. As running buffer, HBS-N pH 7.4 (10 mM HEPES, 150 mM NaCl, pH 7.4, GE Healthcare) was used. For measurement of the samples, running and dilution buffer was PBS-T (10 mM phosphate buffered saline including 0.05% Tween 20), pH 7.4. The sample block was set to 12° C. The flow cell was set to 25° C. and primed with running buffer twice.

| Binder | OD@1 µg/mL [1] | OD@1 µg/mL [2] | EC50 [5] | other results |
| --- | --- | --- | --- | --- |
| VH00/VL00 (antibody, V domains shown, variable domains of rabbit mAb 086; also called VH00 with VL00 (rabbit antibody); parental rabbit antibody) VH: QSVEESGGRLVTPGTPLTLTCTVSGFSLSSNAINWVRQAPGKGLEWIGYIAVSGNTYYASWAKGRFTISKASTTVDLKMTSPTAEDTGTYFCGKSNIWGPGTLVTVSL VL: AQVLTQTTSPVSAAVGSTVTISCQSSQSVRTNKLAWFQQKPGQPPKRLIYSASTLDFGVPSRFSASGSGTQFTLTISDVQCDDAATYYCLGYFDCSIADCVAFGGGTEVVVK | 0.04 OD | 0.54 OD | – | – |
| VH32/VL21 (antibody, V domains shown, full size IgG) VH: EVQVLESGGGLVQPGGSLRLSCAVSGFSLSSNAINWVRQAPGKGLEWVGYIAVSGNTYYASWAKGRFTISRDNSKNTVYLQMNSLRAEDTAVYYCGKSNIWGQGTLVTVSS VL: AQVMTQSPSSLSASVGDRVTITCRSSQSVRTNKLAWFQQKPGQPPKRLIYSASTLDFGVPSRFSGSGSGTEFTLTISSLQPEDFATYYCLGYFDSSADIVAFGGGTKVEIK | – | – | – | binding result [3]: no binding (tested: 1000 ng/ml) |
| VH35H5/VL31A1 Fab fragment (Fab, V domains shown) VH: EVQVLESGGGLVQPGGSLRLSCAVSGISLSSNAINWVRQAPGKGLEWVGYIAVSGNTYYASWAKGRFTISRDNSKNTVYLQMNSLRAEDTAVYYCGKSNIWGQGTLVTVSS VL: AQVMTQSPSSLSASVGDRVTITCRSSQSVRNNKLAWFQQKPGQPPKRLIYSASDLDYGVPSRFSGSGSGTEFTLTISSLQPEDFATYYCLGYFDSSADIVAFGGGTKVEIK | – | – | – | Kd [4]: 0.3 nM; koff [4]: 0.000143 s⁻¹; kon [4]: 410000 M⁻¹ s⁻¹ |
| VH35H5/VL49G1 Fab fragment (Fab, V domains shown) VH: EVQVLESGGGLVQPGGSLRLSCAVSGISLSSNAINWVRQAPGKGLEWVGYIAVSGNTYYASWAKGRFTISRDNSKNTVYLQMNSLRAEDTAVYYCGKSNIWGQGTLVTVSS VL: AQVMTQSPSSLSASVGDRVTITCRSSQSVRSNKLAWFQQKPGQPPKRLIYSASNLDYGVPSRFSGSGSGTEFTLTISSLQPEDFATYYCLGYFDSSADIVAFGGGTKVEIK | – | – | – | Kd [4]: 0.1 nM; koff [4]: 6.03e-05 s⁻¹; kon [4]: 423000 M⁻¹ s⁻¹ |
| VH76A6/VL35G4 (antibody, V domains shown, IgG captured via anti-human Fc) VH: EVQVLESGGGLVQPGGSLRLSCAVSGFSLSNSAINWVRQAPGKGLEWVGYIAVSGNTYYASWAKGRFTISRDNSKNTVYLQMNSLRAEDTAVYYCGKSNIWGQGTLVTVSS VL: AQVMTQSPSSLSASVGDRVTITCRSSQSVRTNKLAWFQQKPGQPPKRLIYSASTLDFGVPSRFSGSGSGTEFTLTISSLQPEDFATYYCAGYFEAPADIVAFGGGTKVEIK | 0.04 OD | 0.07 OD | – | – |
| VH32/VL22 Fab fragment (Fab, V domains shown) VH: EVQVLESGGGLVQPGGSLRLSCAVSGFSLSSNAINWVRQAPGKGLEWVGYIAVSGNTYYASWAKGRFTISRDNSKNTVYLQMNSLRAEDTAVYYCGKSNIWGQGTLVTVSS VL: AQVMTQSPSSLSASVGDRVTITCRSSQSVRTNRLAWFQQKPGQPPKRLIYSASTLDYGVPSRFSGSGSGTEFTLTISSLQPEDFATYYCLGYFDSSADIVAFGGGTKVEIK | – | – | – | Kd [4]: 0.6 nM; koff [4]: 0.000276 s⁻¹; kon [4]: 479000 M⁻¹ s⁻¹ |
| VH35H5/VL49G1 (antibody, V domains shown, IgG captured via anti-human Fc; also called antibody 2) VH: EVQVLESGGGLVQPGGSLRLSCAVSGISLSSNAINWVRQAPGKGLEWVGYIAVSGNTYYASWAKGRFTISRDNSKNTVYLQMNSLRAEDTAVYYCGKSNIWGQGTLVTVSS VL: AQVMTQSPSSLSASVGDRVTITCRSSQSVRSNKLAWFQQKPGQPPKRLIYSASNLDYGVPSRFSGSGSGTEFTLTISSLQPEDFATYYCLGYFDSSADIVAFGGGTKVEIK | 0.04 OD | 1.42 OD | 0.034 µg/mL | Kd [6]: 2 nM; koff [6]: 0.000624 s⁻¹; kon [6]: 312000 M⁻¹ s⁻¹ |
| VH76A6/VL145B12 (antibody, V domains shown, IgG captured via anti-human Fc) VH: EVQVLESGGGLVQPGGSLRLSCAVSGFSLSNSAINWVRQAPGKGLEWVGYIAVSGNTYYASWAKGRFTISRDNSKNTVYLQMNSLRAEDTAVYYCGKSNIWGQGTLVTVSS VL: AQVMTQSPSSLSASVGDRVTITCRSSQSVRSNKLAWFQQKPGQPPKRLIYAASNLDFGVPSRFSGSGSGTEFTLTISSLQPEDFATYYCLGYFDSSADIVAFGGGTKVEIK | 0.04 OD | 0.44 OD | – | – |
| VH35H5/VL35F2 (antibody, V domains shown, IgG captured via anti-human Fc) VH: EVQVLESGGGLVQPGGSLRLSCAVSGISLSSNAINWVRQAPGKGLEWVGYIAVSGNTYYASWAKGRFTISRDNSKNTVYLQMNSLRAEDTAVYYCGKSNIWGQGTLVTVSS VL: AQVMTQSPSSLSASVGDRVTITCRSSQSVRTNKLAWFQQKPGQPPKRLIYSASTLDFGVPSRFSGSGSGTEFTLTISSLQPEDFATYYCLGYFDSPLDIVAFGGGTKVEIK | 0.04 OD | 1.31 OD | 0.0452 µg/mL | Kd [6]: 2.29 nM; koff [6]: 0.000321 s⁻¹; kon [6]: 140000 M⁻¹ s⁻¹ |
| VH32/VL4G1 (antibody, V domains shown) VH: EVQVLESGGGLVQPGGSLRLSCAVSGFSLSSNAINWVRQAPGKGLEWVGYIAVSGNTYYASWAKGRFTISRDNSKNTVYLQMNSLRAEDTAVYYCGKSNIWGQGTLVTVSS VL: AQVMTQSPSSLSASVGDRVTITCRSSQSVRTNKLAWFQQKPGQPPKRLIYSASTLDFGVPSRFSGSGSGTEFTLTISSLQPEDFATYYCLGYFDSPADIVAFGGGTKVEIK | 0.04 OD | 1.13 OD | 0.0273 µg/mL | – |
| VH32/VL35G4 (antibody, V domains shown, IgG captured via anti-human Fc) VH: EVQVLESGGGLVQPGGSLRLSCAVSGFSLSSNAINWVRQAPGKGLEWVGYIAVSGNTYYASWAKGRFTISRDNSKNTVYLQMNSLRAEDTAVYYCGKSNIWGQGTLVTVSS VL: AQVMTQSPSSLSASVGDRVTITCRSSQSVRTNKLAWFQQKPGQPPKRLIYSASTLDFGVPSRFSGSGSGTEFTLTISSLQPEDFATYYCAGYFEAPADIVAFGGGTKVEIK | 0.04 OD | 0.07 OD | – | – |
| VH35H5/VL31A1 (antibody, V domains shown, IgG captured via anti-human Fc; also called antibody 1) VH: EVQVLESGGGLVQPGGSLRLSCAVSGISLSSNAINWVRQAPGKGLEWVGYIAVSGNTYYASWAKGRFTISRDNSKNTVYLQMNSLRAEDTAVYYCGKSNIWGQGTLVTVSS VL: AQVMTQSPSSLSASVGDRVTITCRSSQSVRNNKLAWFQQKPGQPPKRLIYSASDLDYGVPSRFSGSGSGTEFTLTISSLQPEDFATYYCLGYFDSSADIVAFGGGTKVEIK | 0.04 OD | 1.03 OD | 0.033 µg/mL | Kd [6]: 1.62 nM; koff [6]: 0.000616 s⁻¹; kon [6]: 380000 M⁻¹ s⁻¹ |
